Consider 1 protein from patent publication US20180202002.

The data set deals with T1, N-terminal tagged Cyclin D1 (FLAG-HA-Cyclin D1, tag at the N-terminus), P25322.
T1 chain: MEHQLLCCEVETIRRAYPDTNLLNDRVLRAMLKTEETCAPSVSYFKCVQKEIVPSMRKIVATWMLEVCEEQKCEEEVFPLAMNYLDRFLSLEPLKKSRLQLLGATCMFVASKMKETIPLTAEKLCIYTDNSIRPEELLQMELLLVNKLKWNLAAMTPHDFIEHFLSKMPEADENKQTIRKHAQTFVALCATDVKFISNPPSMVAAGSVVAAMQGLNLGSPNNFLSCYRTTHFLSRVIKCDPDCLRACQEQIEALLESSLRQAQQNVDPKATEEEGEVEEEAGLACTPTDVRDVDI

B1: caspase 3 (protein)
chain: MENNKTSVDSKSINNFEVKTIHGSKSVDSGIYLDSSYKMDYPEMGICIIINNKNFHKSTGMSSRSGTDVDAANLRETFMGLKYQVRNKNDLTREDILELMDSVSKEDHSKRSSFVCVILSHGDEGVIYGTNGPVELKKLTSFFRGDYCRSLTGKPKLFIIQACRGTELDCGIETDSGTDEEMACQKIPVEADFLYAYSTAPGYYSWRNSKDGSWFIQSLCSMLKLYAHKLEFMHILTRVNRKVATEFESFSLDSTFHAKKQIPCIVSMLTKELYFYH
On to B1, for which the “levels of cleaved PARP (Western blot) after treatment with 5-FU” value was “The levels of cleaved PARP increase in RAS or ErbB2 cancer cells after treatment with 5-FU, although limited by the Cyclin D1”.
